The target of the experiment is CD2 (human) (UniProt P06729). The experiment is described as follows: dTomato EVs from cells stably expressing the codon-optimized scFv on Jurkat T cells, flow cytometry. (In general: In flow cytometry, cells or beads pass a laser one at a time.)
Chain of UniProt P06729 (P06729 25-351): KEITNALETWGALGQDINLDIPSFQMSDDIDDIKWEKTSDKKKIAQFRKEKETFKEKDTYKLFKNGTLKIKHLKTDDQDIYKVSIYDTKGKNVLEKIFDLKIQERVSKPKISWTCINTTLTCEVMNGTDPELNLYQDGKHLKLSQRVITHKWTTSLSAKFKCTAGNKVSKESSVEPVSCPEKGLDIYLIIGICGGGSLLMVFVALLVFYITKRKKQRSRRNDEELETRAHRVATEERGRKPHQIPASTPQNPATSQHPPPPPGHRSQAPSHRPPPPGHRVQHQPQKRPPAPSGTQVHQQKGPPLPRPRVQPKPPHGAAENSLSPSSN

B1: anti-CD2 scFv displayed on EVs via the PDGFR transmembrane domain, helical (α-helix) linker (scFv)
scFv: DYKDHDGDYKDHDIDYKDDDDKNIMMTQSPSSLAVSAGEKVTMTCKSSQSVLYSSNQKNYLAWYQQKPGQSPKLLIYWASTRESGVPDRFTGSGSGTDFTLTISSVQPEDLAVYYCHQYLSSHTFGGGTKLEIKRGGGGSGGGGSGGGGSQLQQPGAELVRPGSSVKLSCKASGYTFTRYWIHWVKQRPIQGLEWIGNIDPSDSETHYNQKFKDKATLTVDKSSGTAYMQLSSLTSEDSAVYYCATEDLYYAMEYWGQGTSVTVSSDQSNSEEAKKEEAKKEEAKKSNSAVGQDTQEVIVVPHSLPFKVVVISAILALVVLTIISLIILIMLWQKKPR
The molecule B1 yielded a fold increase of EV binding over non-targeted EVs of more than 100 fold.

The values are drawn from US20250312479A1.
